Experimental data published in the supplement of paper PMC9732359.
± gives the uncertainty stated by the source.

Assay: protein stability index of a GFP-peptide fusion (yeast GPS) (PSI 1-4); higher = more stable; sorted into four equal gates, so the index is relative within each strain
Outline: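 Plasmids in a pooled yeast library fused tiled 17-residue yeast protein peptides downstream of GFP and also expressed Cherry. Mid-log cultures grown without leucine were sorted into four equal gates by GFP/Cherry fluorescence ratio. Each gate's plasmids were PCR-amplified and Illumina-sequenced, and reads were matched to strains by barcodes. The protein stability index is derived by multiplying each gate's read frequency by its gate number and summing the results.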

Row | Sequence | protein stability index (doa10∆) | protein stability index (pdr5∆) | protein stability index (san1∆) | protein stability index (ubr1∆)
1 | DESLKDEATVPNTRDAE [SWI3] | 3.16 ± 0.074 | 3.31 ± 0.082 | 3.19 ± 0.13 | 3.14 ± 0.077
2 | FQIPTNLDAAAAGTSQA [RPC10] | 2.44 ± 0.14 | 2.83 ± 0.09 | 2.65 ± 0.095 | 2.66 ± 0.085
3 | ERKKQSDVLRFLQRVRV [RPL15B] | 2.08 ± 0.06 | 2.43 ± 0.062 | 2.04 ± 0.066 | 2.12 ± 0.043
4 | GLIMLNLQPASVINNYL [NUT1] | 1.71 ± 0.063 | 1.5 ± 0.098 | 1.15 ± 0.27 | 2 ± 0.071
5 | EPFNAGIKYHATPPLKR [SMC1] | 3.05 ± 0.071 | 3.12 ± 0.071 | 2.79 ± 0.062 | 2.97 ± 0.045
6 | LTDPMTVMFFYHNKHMM [DIB1] | 2.19 ± 0.075 | 2.04 ± 0.061 | 2.33 ± 0.094 | 1.76 ± 0.041
7 | SEVRKAVSIETALEHKV [FAS2] | 1.67 ± 0.12 | 1.4 ± 0.095 | 1.35 ± 0.12 | 1.39 ± 0.051
8 | LKENEENEDGNIEERKE [BRR2] | – | 3.56 ± 0.27 | 3.13 ± 0.098 | –
9 | DSAKEWPQSKNCEYEDP [RPB3] | 3.6 ± 0.19 | 3.13 ± 0.13 | 3.27 ± 0.14 | 3.27 ± 0.14
10 | MANDLVQARDNSQVFGV [RPS14B] | 2.39 ± 0.076 | 2.36 ± 0.061 | 2.81 ± 0.049 | 2.97 ± 0.063
11 | GMNNASAGLFGSKPAGG [YGL172W/NUP49] | 3.23 ± 0.086 | 3.32 ± 0.086 | 2.96 ± 0.09 | 3.23 ± 0.053
12 | TIEVLDEVITEGQADID [POP7] | 2.94 ± 0.064 | 3.1 ± 0.061 | 3.06 ± 0.072 | 3.07 ± 0.049
13 | ESMLHLSIWIKNYPEYF [IRR1] | 2.17 ± 0.046 | 2.06 ± 0.038 | 2.25 ± 0.061 | 2.2 ± 0.043
14 | KPFGSAKSDETKQASSF [YLR335W/NUP2] | – | 2.09 ± 0.12 | 1.92 ± 0.15 | 1.06 ± 0.13
15 | MTAMRLMLKKLKNSIMS [YML031W/NDC1] | 1.6 ± 0.085 | 1.99 ± 0.087 | 2.16 ± 0.12 | 2.28 ± 0.059
16 | VESVCQKLDILVAKLKK [SMC4] | 1.9 ± 0.093 | 2.19 ± 0.051 | 2.24 ± 0.087 | 2.12 ± 0.048
17 | MNYLLDNKINEIKLLEI [CSI1] | 2.91 ± 0.12 | 2.81 ± 0.098 | 2.67 ± 0.069 | 2.89 ± 0.091
18 | EKIKDIHNTKLPAYSGE [POP1] | 3.09 ± 0.059 | 3.04 ± 0.057 | 2.96 ± 0.048 | 2.79 ± 0.08
19 | RNKRAVQLPILKIIYTG [YJL039C/NUP192] | 1.6 ± 0.056 | 1.87 ± 0.048 | 1.97 ± 0.069 | 2.02 ± 0.067
20 | QGGNNELGTAVGKLFRV [RPL30] | 2.5 ± 0.12 | 2.83 ± 0.093 | 2.45 ± 0.06 | 2.84 ± 0.076
21 | EKLITSKLLVPQKNVKI [PRE10] | 2.55 ± 0.061 | 2.6 ± 0.047 | 2.04 ± 0.096 | 2.21 ± 0.042
22 | VLKSHSNDFEEGSTIRY [YMR129W/POM152] | 2.44 ± 0.075 | 2.8 ± 0.099 | 2.93 ± 0.067 | 2.88 ± 0.068
23 | DDDEIVMPVPNVRSSVL [SKP1] | 2.42 ± 0.053 | 2.25 ± 0.058 | 2.45 ± 0.062 | 2.48 ± 0.051
24 | FYVPQARNVTFDSLRNF [GRR1] | 2.04 ± 0.08 | 2.27 ± 0.075 | 2.52 ± 0.08 | 2.22 ± 0.059
25 | QKVQGESHIDSRNNTLN [SIR4] | 3.02 ± 0.057 | 3.1 ± 0.05 | 3.08 ± 0.057 | 3.01 ± 0.043
26 | YVNYEISTAKAWGALIT [YML103C/NUP188] | 1.32 ± 0.052 | 1.43 ± 0.049 | 1.3 ± 0.073 | 1.4 ± 0.06
27 | DSIPRDVAYLLKSESAT [YGL172W/NUP49] | 2.74 ± 0.092 | 3.11 ± 0.079 | 2.91 ± 0.05 | 3.19 ± 0.074

Row | Sequence | protein stability index (doa10∆) | protein stability index (pdr5∆) | protein stability index (san1∆) | protein stability index (ubr1∆)
28 | EDNGIVKALRNVPGVET [RPL4A] | 1.77 ± 0.16 | – | 2.46 ± 0.11 | 2.47 ± 0.19
29 | FLDSVHKQGSSYVAVLG [POP7] | 2.6 ± 0.045 | 2.17 ± 0.037 | 2.38 ± 0.057 | 2.51 ± 0.033
30 | DLGIKYDPSIGIFGMDF [RPL11A] | 2.85 ± 0.04 | 3.06 ± 0.041 | 2.96 ± 0.039 | 3 ± 0.037
31 | DGRVNRFYELEESLTVL [YJR042W/NUP85] | 2.28 ± 0.12 | 2.21 ± 0.13 | – | 1.99 ± 0.1
32 | IASLERELILAKKQNYK [YCG1] | 2.6 ± 0.07 | 3.07 ± 0.06 | 2.14 ± 0.084 | 2.42 ± 0.041
33 | VFLLLQAYFSRLELPVD [BRR2] | 1.59 ± 0.05 | 1.31 ± 0.043 | 1.26 ± 0.089 | 1.48 ± 0.041
34 | PFLLMELHKKLVEAAKL [YDL116W/NUP84] | 1.41 ± 0.11 | 1.13 ± 0.093 | – | 1.25 ± 0.13
35 | ELGAINLHALSMSLQSK [SWI1] | 2.39 ± 0.058 | 2.33 ± 0.085 | 1.99 ± 0.27 | 2.46 ± 0.076
36 | SANTNNTCTISTSKFES [SWP82] | 2.59 ± 0.055 | 2.51 ± 0.07 | 2.43 ± 0.055 | 2.13 ± 0.04
37 | PIPDARNAALRAKAEAA [SCL1] | 2.39 ± 0.14 | 2.69 ± 0.11 | 2.44 ± 0.13 | 2.34 ± 0.092
38 | MAAQKSFRIKQKMAKAK [RPL39] | 2.75 ± 0.072 | 2.97 ± 0.11 | 2.25 ± 0.083 | 2.74 ± 0.08
39 | MGIVQDTLCGIRKLTLR [RPO21] | 2.89 ± 0.068 | 1.74 ± 0.053 | 1.87 ± 0.068 | 1.64 ± 0.053
40 | LSALFTISSKPDILATD [YCS4] | 2.32 ± 0.14 | 2.78 ± 0.14 | 2.72 ± 0.088 | 2.98 ± 0.11
41 | DHYESNQLVAKLLLLRI [SRB8] | 2.84 ± 0.065 | 2.74 ± 0.085 | 2.84 ± 0.1 | 2.34 ± 0.038
42 | SKDIETLKKEWLKEYED [YIL149C/MLP2] | 3.34 ± 0.093 | 3.16 ± 0.085 | 3.26 ± 0.053 | 3.15 ± 0.051
43 | KATAAKKAVVKGTNGKK [RPL25] | 3.3 ± 0.15 | 2.05 ± 0.1 | 1.53 ± 0.17 | 1.29 ± 0.22
44 | ALTVQEVLNRVASRHPS [YDL116W/NUP84] | 3.1 ± 0.086 | 3.15 ± 0.073 | 3.12 ± 0.043 | 3.3 ± 0.047
45 | TQLQRGGTSDMNYLLDN [CSI1] | 2.89 ± 0.097 | 2.82 ± 0.14 | 3.2 ± 0.078 | 3.02 ± 0.078
46 | LISGPRNQILVSITDAP [YMR129W/POM152] | 1.68 ± 0.092 | 1.81 ± 0.084 | 1.46 ± 0.1 | 1.68 ± 0.079
47 | SRTRAHAQSKREGRHSG [RPL19A] | 2.87 ± 0.076 | 2.85 ± 0.07 | 2.83 ± 0.042 | 2.99 ± 0.037
48 | LNGREVKAILMQRHVKV [RPS4A] | 1.23 ± 0.081 | 1.25 ± 0.063 | 1.39 ± 0.21 | 1.24 ± 0.051
49 | DTDSKPSSQSQNDTPMF [YLR018C/POM34] | 2.89 ± 0.044 | 3.17 ± 0.048 | 3 ± 0.039 | 2.95 ± 0.034
50 | ITKLHLDKDRKALIQRK [RPL26A] | 2.1 ± 0.13 | 1.92 ± 0.094 | 2.49 ± 0.16 | 1.51 ± 0.091
51 | DVKFPSNTTTQIQFTPL [SMC3] | 2.59 ± 0.16 | 2.64 ± 0.15 | 2.98 ± 0.14 | 2.76 ± 0.052
52 | QISIIDIWSISKKRQAE [YML031W/NDC1] | 2.32 ± 0.056 | 2.63 ± 0.052 | 2.54 ± 0.053 | 2.79 ± 0.039
53 | AKLESLLENSVDKNFDK [MTW1] | 3.39 ± 0.06 | 3.24 ± 0.076 | 3.34 ± 0.048 | 3.32 ± 0.066
